Reference: patent publication US20030148264A1, “Phage displayed PDZ domain ligands” (GENENTECH, INC., priority 2001, published 2003)

How the values were obtained:
PDZ 2 of MAGI-3 = molecular target: T1, PDZ 2 of MAGI-3 (Homo sapiens, UniProt Q5TCQ9); assay: GST-PDZ co-precipitation of proteins from transfected HEK 293 cell extracts; type: binding; conditions: extracts from transfected HEK 293 cells; FIG. 6
T1 construct: made in house; host or cells: E. coli
T1 sequence (Q5TCQ9 584-707 isoform Q5TCQ9-2): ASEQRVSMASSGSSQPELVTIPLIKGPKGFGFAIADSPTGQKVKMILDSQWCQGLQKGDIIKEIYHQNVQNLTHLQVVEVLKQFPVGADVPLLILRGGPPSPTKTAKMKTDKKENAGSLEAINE
Method: (§1) HEK 293 (293) cells grown in high glucose Dulbeco's Modified Eagle Medium (DMEM), 10% fetal calf serum, 1× non-essential amino acid supplement, 1×L-glutamine supplement, 10 mM HEPES (pH 7.4) and penicillin/streptomycin (all from Life Technologies) to ˜80% confluence were transfected with 2 μg DNA/35 mm diameter well (for example, DNAs encoding the sequences described in EXAMPLE 5.0) using Fugene reagent (Roche Biochemical). 24 hours post-transfection, cells were washed once with PBS and then scraped into 1 ml/well of 20 mM Tris (pH 7.5), 1% Triton X-100, 200 mM NaCl, 1 mM dithiothreitol, and protease inhibitor cocktail with EDTA (Roche Biochemical, catalog #1836145) and homogenized gently with three to five strokes in a dounce (Wheaton) using a loose glass pestle. Extracts were centrifuged at 12,000 rpm in a tabletop centrifuge at 4° C. for 10 minutes; the supernatant was combined with an equal volume of homogenization buffer without NaCl to achieve a final salt concentration of 100 mM and frozen at −70° C. until use. […] Binding of 293 cell-expressed proteins was detected by immunoblot analysis using antibodies against GFP (Clontech) and Her 2 (Santa Cruz Biotechnology).
(§2) Amino acids 1217-1371 of ERBIN and 584-707 corresponding to PDZ 2 of MAGI-3 (Sidhu et al., 2000); were expressed in E. coli as GST fusions. […] Equal volumes of extract and depleted extract (sup.) were analyzed.

ERBIN PDZ domain [1] = molecular target: T2, ERBIN PDZ domain (Homo sapiens, UniProt Q96RT1); assay: as above; type: binding; design: made in house; host or cells: E. coli; conditions: extracts from transfected HEK 293 cells; FIG. 6
Method: as §1, §2
Target sequence in this assay (Q96RT1 1258-1412): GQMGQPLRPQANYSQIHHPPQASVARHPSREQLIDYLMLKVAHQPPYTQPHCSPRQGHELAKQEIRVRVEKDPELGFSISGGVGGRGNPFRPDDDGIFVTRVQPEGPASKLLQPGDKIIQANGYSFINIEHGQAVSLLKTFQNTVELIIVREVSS

ERBIN PDZ domain [2] = molecular target: T2, ERBIN PDZ domain; assay: Co-localization of ERBIN PDZ and δ-catenin in transfected HEK 293 cells; type: cell-based; design: expressed in transfected cells; host or cells: HEK 293; conditions: co-transfected HEK 293 cells; FIG. 7
Method: HEK 293 cells were grown to 70% confluence on collagen IV coated coverslips and then transfected with 1.4 μg of GST-ERBIN PDZ in pcDNA 3.1/V5/His and 1.1 μg of the indicated EGFP construct. 24 to 48 hours post-transfection, the cells were washed in PBS, fixed for 30 minutes in 2.5% formaldehyde, permeabilized with 0.25% Triton X-100 in PBS, and blocked with 5% donkey serum in PBS. The ERBIN PDZ domain was visualized by staining with monoclonal anti-V5 antibody (Invitrogen) and Cy3-conjugated secondary antibodies (Jackson Immunolabs) whereas GFP fusions were visualized directly. Images were taken on a standard fluorescence microscope using a 40× objective and digital CCD camera and SPOT imaging software (Diagnostic Instruments, Inc.; Sterling Heights, Mich.).
The ERBIN PDZ domain was co-transfected into HEK 293 E cells with EGFP, human δ-catenin or human δ-catenin missing the six C-terminal amino acids (FIG. 7).
Target sequence in this assay (Q96RT1 1314-1412): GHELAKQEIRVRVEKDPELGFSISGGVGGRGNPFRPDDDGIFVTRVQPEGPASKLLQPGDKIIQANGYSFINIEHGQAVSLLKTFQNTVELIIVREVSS

B1: δ-catenin: member of the Armadillo family, expressed as EGFP fusion in HEK 293 cells; candidate ERBIN PDZ ligand (protein)
chain: MFARKPPGAAPLGAMPVPDQPSSASEKTSSLSPGLNTSNGDGSETETTSAILASVKEQELQFERLTRELEAERQIVASQLERCKLGSETGSMSSMSSAEEQFQWQSQDGQKDIEDELTTGLELVDSCIRSLQESGILDPQDYSTGERPSLLSQSALQLNSKPEGSFQYPASYHSNQTLALGETTPSQLPARGTQARATGQSFSQGTTSRAGHLAGPEPAPPPPPPPREPFAPSLGSAFHLPDAPPAAAAAALYYSSSTLPAPPRGGSPLAAPQGGSPTKLQRGGSAPEGATYAAPRGSSPKQSPSRLAKSYSTSSPINIVVSSAGLSPIRVTSPPTVQSTISSSPIHQLSSTIGTYATLSPTKRLVHASEQYSKHSQELYATATLQRPGSLAAGSRASYSSQHGHLGPELRALQSPEHHIDPIYEDRVYQKPPMRSLSQSQGDPLPPAHTGTYRTSTAPSSPGVDSVPLQRTGSQHGPQNAAAATFQRASYAAGPASNYADPYRQLQYCPSVESPYSKSGPALPPEGTLARSPSIDSIQKDPREFGWRDPELPEVIQMLQHQFPSVQSNAAAYLQHLCFGDNKIKAEIRRQGGIQLLVDLLDHRMTEVHRSACGALRNLVYGKANDDNKIALKNCGGIPALVRLLRKTTDLEIRELVTGVLWNLSSCDALKMPIIQDALAVLTNAVIIPHSGWENSPLQDDRKIQLHSSQVLRNATGCLRNVSSAGEEARRRMRECDGLTDALLYVIQSALGSSEIDSKTVENCVCILRNLSYRLAAETSQGQHMGTDELDGLLCGEANGKDAESSGCWGKKKKKKKSQDQWDGVGPLPDCAEPPKGIQMLWHPSIVKPYLTLLSECSNPDTLEGAAGALQNLAAGSWKWSVYIRAAVRKEKGLPILVELLRIDNDRVVCAVATALRNMALDVRNKELIGKYAMRDLVHRLPGGNNSNNTASKAMSDDTVTAVCCTLHEVITKNMENAKALRDAGGIEKLVGISKSKGDKHSPKVVKAASQVLNSMWQYRDLRSLYKKDGWSQYHFVASSSTIERDRQRPYSSSRTPSISPVRVSPNNRSASAPASPREMISLKERKTDYECTGSNATYHGAKGEHTSRKDAMTAQNTGISTLYRNSYGAPAEDIKHNQVSAQPVPQEPSRKDYETYQPFQNSTRNYDESFFEDQVHHRPPASEYTMHLGLKSTGNYVDFYSAARPYSELNYETSHYPASPDSWV
modifications: left off: large carriers
notes: member of the Armadillo family, expressed as EGFP fusion in HEK 293 cells; candidate ERBIN PDZ ligand
binding to / precipitation by GST-MAGI-3 PDZ 2 (PDZ 2 of MAGI-3): not to PDZ 2 of MAGI-3 | binding to / precipitation by GST-ERBIN PDZ (ERBIN PDZ domain [1]): binds strongly | co-localization with / recruitment of ERBIN PDZ domain (ERBIN PDZ domain [2]): complete recruitment of ERBIN PDZ to the cell junction
